In this series the target is T1, HTkC (Thermococcus kodakarensis, UniProt Q5JDW7).
T1 sequence: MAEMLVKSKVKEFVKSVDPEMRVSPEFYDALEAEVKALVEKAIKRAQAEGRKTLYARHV
The experiment in a line: X-ray crystallography; 1.95 A; EMSA: 50 mM Tris-HCl pH 7.0, 75 mM KCl, 14.5% glycerol, room temperature 30 min, gel in 0.5x TBE at 4 C; TPM: 50 mM Tris pH 7.0, 75 mM KCl. As to conditions: protein: recombinant; chain copies: 4; blunt.

B1: 30 bp-GC50 (dsDNA)
DNA 1: TTAAAGCCCGTTAAAGCCCGTTAAAGCCCG
DNA 2: CGGGCTTTAACGGGCTTTAACGGGCTTTAA
For the molecule B1, the binding result is recorded as “binds”.

(Values after article doi:10.64898/2025.12.06.692711, “Archaeal histone HTkC hypercompacts DNA”.)
